Consider 2 molecules from PMC5999318 (Molecular cell, 2018).

Data set [1] addresses T1, His-tagged CodA, purified recombinant (E. coli, UniProt P25524 1-427).
T1 sequence (looked up): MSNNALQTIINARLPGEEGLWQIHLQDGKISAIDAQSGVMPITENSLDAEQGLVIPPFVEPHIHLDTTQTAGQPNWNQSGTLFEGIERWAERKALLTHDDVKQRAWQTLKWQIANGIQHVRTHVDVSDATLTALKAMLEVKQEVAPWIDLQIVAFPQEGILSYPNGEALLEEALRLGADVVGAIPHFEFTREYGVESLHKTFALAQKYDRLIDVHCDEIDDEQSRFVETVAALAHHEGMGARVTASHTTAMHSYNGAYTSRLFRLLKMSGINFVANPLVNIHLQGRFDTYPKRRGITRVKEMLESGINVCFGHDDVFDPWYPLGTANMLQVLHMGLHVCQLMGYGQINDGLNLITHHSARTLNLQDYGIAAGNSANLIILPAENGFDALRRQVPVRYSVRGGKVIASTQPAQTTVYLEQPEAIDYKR
The data set is described as follows: co-IP.

Data set [2] concerns the molecule itself. The data set is described as follows: non-reducing SDS-PAGE and anti-FLAG western blot of lysates.

B1: His-tagged GAPDH, purified recombinant (enzyme, E. coli, UniProt P0A9B2 1-331, looked up)
chain: MTIKVGINGFGRIGRIVFRAAQKRSDIEIVAINDLLDADYMAYMLKYDSTHGRFDGTVEVKDGHLIVNGKKIRVTAERDPANLKWDEVGVDVVAEATGLFLTDETARKHITAGAKKVVMTGPSKDNTPMFVKGANFDKYAGQDIVSNASCTTNCLAPLAKVINDNFGIIEGLMTTVHATTATQKTVDGPSHKDWRGGRGASQNIIPSSTGAAKAVGKVLPELNGKLTGMAFRVPTPNVSVVDLTVRLEKAATYEQIKAAVKAAAEGEMKGVLGYTEDDVVSTDFNGEVCTSVFDAKAGIALNDNFVKLVSWYDNETGYSNKVLDLIAHISK
In the case of B1, in data set [1], the binding result is given as “binds”.

B2: FLAG-tagged Hcp (hybrid-cluster protein), overexpressed in WT E. coli (enzyme, UniProt P75825 1-550, looked up)
chain: MFCVQCEQTIRTPAGNGCSYAQGMCGKTAETSDLQDLLIAALQGLSAWAVKAREYGIINHDVDSFAPRAFFSTLTNVNFDSPRIVGYAREAIALREALKAQCLAVDANARVDNPMADLQLVSDDLGELQRQAAEFTPNKDKAAIGENILGLRLLCLYGLKGAAAYMEHAHVLGQYDNDIYAQYHKIMAWLGTWPADMNALLECSMEIGQMNFKVMSILDAGETGKYGHPTPTQVNVKATAGKCILISGHDLKDLYNLLEQTEGTGVNVYTHGEMLPAHGYPELRKFKHLVGNYGSGWQNQQVEFARFPGPIVMTSNCIIDPTVGAYDDRIWTRSIVGWPGVRHLDGDDFSAVITQAQQMAGFPYSEIPHLITVGFGRQTLLGAADTLIDLVSREKLRHIFLLGGCDGARGERHYFTDFATSVPDDCLILTLACGKYRFNKLEFGDIEGLPRLVDAGQCNDAYSAIILAVTLAEKLGCGVNDLPLSLVLSWFEQKAIVILLTLLSLGVKNIVTGPTAPGFLTPDLLAVLNEKFGLRSITTVEEDMKQLLSA
Take B2: the “stoichiometry N” value in data set [2] worked out at 2.

For orientation: stoichiometry N means a count of units in the complex or per binding partner.
